# Source: patent US20250313612A1 (Adimab, published 2025)
# Substitutions are numbered along the chain they refer to.
# B1: ADI-14457 (antibody, V domains shown)
# VH: QVTLKESGPALVRPKQTLTLTCSFSGFSLDTQRTGVNWIRQSPGKALEWLARIDWDGNIYSSTSVRTKLSISKGTSKNQVVLTMTDVDPVDTATYYCARTLYYTSGGYYLNLFDYWGQGTLVTVSS
# VL: EIVMTQSPPSLSASVGDRVTITCRASQTIPSYVNWYQQISGKAPRLLIYAASLLQSGVPSRFSGSGSGTEFSLTISGLRPEDFGTYYCQQSYSSTPTFGQGTKVEIK
# notes: full-length IgG (yeast-expressed); also called Antibody Number 20; Ab# 20
# B2: ADI-14484 (antibody, V domains shown)
# VH: B1 VH
# VL: B1 VL with K103R, V104L
# notes: full-length IgG (yeast-expressed); also called Antibody Number 45; Ab# 45
# B3: ADI-14468 (antibody, V domains shown)
# VH: QVQLVQSGPTLVRPTQTLTLTCTFSGFSLSTRGVGVGWVRQSPGKAPEFLVLAHWDDDKIYSPSLRRRLSVTKDVSKNQVVLALTNVDPVDTGTYFCVKSDLYDRGGYYLYYFDHWGQGTLVTVSS
# VL: DIRMTQSPSSLSASVGDRVTITCRASQTIASYVNWYLQRPGEAPKLLIYAASNLHSGAPPSLIGRGSGTDFTLTINTLQPEHFGTYFCQQTFSSPYTFGQGTKVEIK
# notes: full-length IgG (yeast-expressed); also called Antibody Number 31; Ab# 31
# B4: ADI-14469 (antibody, V domains shown)
# VH: QVQLVESGPTLVKPTQTLTLTCTFSGFSLTTRGVGVGWVRQPPGKALEFLGLTHWDDDKIYSPSLRRRLTITKDTSKNQVVLALANVDPVDTATYFCVKSDLYDRGGYYLYYFDYWGQGTLVTVSS
# VL: B3 VL with D1E, R3V, M4L, A30P, A50G, S56T, S61T, L62F, T69A, F87Y
# notes: full-length IgG (yeast-expressed); also called Antibody Number 32; Ab# 32
# B5: ADI-14477 (antibody, V domains shown)
# VH: EVQLVESGPTLVKPTQTLTLTCSLSGFSLTTRGVGVGWIRQPPGKAPECLGFVYWDDDNRYSPSLRGRLTISKDTSKNQVVLTLTNMDPLDTATYYCVHSDLYDRGGYYLFYFDDWGQGTLVTVSS
# VL: DIQVTQSPSSLSASVGDRVTITCRASQPIASYLNWYQQKPGQAPKLLIYAASMLQSGAPSKFSGRGSGTDFTLTITTLQPEDFATYYCQQSYTFPYTFGQGTKVEIK
# notes: full-length IgG (yeast-expressed); also called Antibody Number 39; Ab# 39
# B6: ADI-14470 (antibody, V domains shown)
# VH: QVTLKESGPALVKPTETLTLTCTFSGFSLSTKRLSVSWIRQPPGKALEWLARIDWDDDKSYSTSLRTRLTIAKDTSKNQVVLTMTNMGPADTATYFCVRSSVYASNAYYLYYFDSWGQGTLVTVSS
# VL: DIRMTQSPSSLSASVGDRVTITCRASQSIATYLNWYQHKPGKAPTLLIYAASILHSGVPPRFSGRASGTDFTLTISSLQPEDFATYYCQQAYSSPYTFGQGTKVDIK
# notes: full-length IgG (yeast-expressed); also called Antibody Number 33; Ab# 33
# B7: ADI-14440 (antibody, V domains shown)
# VH: QVQLVQSGAEVKKPGSSVKVSCKASGGTINNVAISWLRQAPGQGLEWLGGNIPGFGKVRYSQQFETRLTLTADVSSDTAYMVLTSLRSEDTAVYYCAIIDPQLCTRASCFWVNWLDPWGQGTTVTVSS
# VL: DIVMTQSPGTLSVSPGESAALSCGASESILSDSLAWYQHKPGQAPRLLIYGASSRAAGIPDRFSGSGSGTDFTLTISRLEPEDFAVYFCQQFGALPITFGQGTRLEIK
# notes: full-length IgG (yeast-expressed); also called Antibody Number 3; Ab# 3
# B8: ADI-14485 (antibody, V domains shown)
# VH: EVQLVESGAEVKRPGSSVKVSCKVVGGSFSNYAISWVRQAPGQGPEYLGGIIPAFRTAKYAKKFQDRLTITADESTSTAYMEMRGLTSDDTGLYYCARPEGDFGDLKWLRSPFDYWGQGTLVTVSS
# VL: EIVLTQSPATLSVSPGQRVTLSCRASQGVSINLAWYQQKPGQPPRLLIYGASTRATDIPARFSGSGSGTDFTLTISSLQSEDFAVYYCQQYDDWPPQLTFGPGTKLEIK
# notes: full-length IgG (yeast-expressed); also called Antibody Number 46; Ab# 46
# B9: ADI-14458 (antibody, V domains shown)
# VH: QVQLVESGGGLVKPGGSLRLSCAASGFIFSNAWMSWVRQSPGKGLEWVGRIKTKTEGATTDHAAPLKGRFTISRDDSRNTLYLQMDSLTTEDTAVYFCTTGPPYSYFDSTGYSIVDYWGQGTLVTVSS
# VL: SYELTQPPAASGTPGQRVTISCSGSSSNIGSEYVLWYQQVPGTAPKLLIYNSHQRPSGVPDRISGSRSGTSASLAISGLRSEDEAHYYCASWDDSLSGPVFGGGTQLTVL
# notes: full-length IgG (yeast-expressed); also called Antibody Number 21; Ab# 21
# B10: ADI-14460 (antibody, V domains shown)
# VH: QVQLQQWGAGLLKPSETLSLSCTVSGGVFGNYFWSWVRQAPGKGLEWIGEINQIGTTNYSPSASLKSRVTISVDPSRNQFSLSLRSVTAADTARYYCTRSETSDYFDSSGYAFHIWGEGTMVTVSS
# VL: LPVLTQPASVSGSPGQSITISCSGISSDGGRYNYVSWYQQHPGKAPKLLIYDDSNWPLGVSHRFSGSKSGNTASLTISGLRAEDEADYYCGSYTDTNRLFGGGTQLTVL
# notes: full-length IgG (yeast-expressed); also called Antibody Number 23; Ab# 23
# B11: ADI-14466 (antibody, V domains shown)
# VH: QVQLVQSGAEAKKPGEPLRISCKGSGYTFSSYWISWVRQRPGERLEWMGRIDPSDSYAYSSPSFQGHVTFSADKSSNTAFLQWSSLQASDTAIYYCARHKENYDFWDFWGQGTMVTVSS
# VL: ETTLTQSPDSLAVSLGERATINCRSSQPILFNPINKLSLAWYQLKPGQPPKLLISWASTREPGVPDRFNGSGSGTVFTLTISSLQPEDVAVYVCQQYFTSTFFGPGTKVEIK
# notes: full-length IgG (yeast-expressed); also called Antibody Number 29; Ab# 29
# B12: ADI-14454 (antibody, V domains shown)
# VH: QVQLVQSGPTLVKPTQTLTLTCTFSGFSLSTRGVGVGWIRQPPGKALECLGFTYWDGDQFHSPSLKNRLTITKDTSKNQVVLRMTNMDPVDTATYFCVHSDLYDSGGYYLYYFDYWGQGTLVTVSS
# VL: DIQMTQSPSSLSASVGDRVTITCRASQTIASYLNWYQQRPGEAPKLLIYAASSLQSGVSSRFSGRGSGTDFTLTINILQPEDLATYFCQQAYSAPYTFGQGTKVEIK
# notes: full-length IgG (yeast-expressed); also called Antibody Number 17; Ab# 17
# B13: ADI-14476 (antibody, V domains shown)
# VH: QVQLVESGPTLVKPTQTLSLTCTFSGFSLTTRGVGVGWIRQPPGKALEWLGFTYWDGDDRYSPSLRNRVSIAKDTSKNQVVLTLTNMDPVDTATYFCVHSDRYDRGGYYLYFFDYWGPGTLVTVSS
# VL: DIRVTQSPSSLSASVGDRVSISCRASQTIASYVNWYQQRPGKAPQLLIFAASHLQTGVPSRFSGRGSGTDFTLTITSLQPEDFATYYCQQSYTSPYTFGQGTKVEIK
# notes: full-length IgG (yeast-expressed); also called Antibody Number 38; Ab# 38
# B14: ADI-14459 (antibody, V domains shown)
# VH: QVQLVQSGGGLVKPGGSLRLSCAASGFTFSNAWMSWVRQAPGKGLDWVGRIKTKADGGTRDYAAPVKGRFTISRDDSENTLYLQMTSLKTEDTGVYYCSTGPPYKYHDSTGYSVVDYWGQGTLVTVSS
# VL: SYELTQPPSASGTPGQRVTISCSGGSSNIGSDYVYWYQQLPGTAPKLLIYGSSQRPSGVPDRFSGSQSGTSASLAISGLRSEDEADYYCAMWDDSLNGPVFGGGTKLTVL
# notes: full-length IgG (yeast-expressed); also called Antibody Number 22; Ab# 22
# B15: ADI-14475 (antibody, V domains shown)
# VH: QVQLVQSGPALVKPTQTLTLTCTFSGFSLTTARMCVSWIRQPPGKALEWLARIDWDDDKSYSTSLKTRLTIAKDTSKNQVVLTMTNMGPADTATYYCVRTPIYASGGYYLSYFDSWGQGTLVTVSS
# VL: DIVMTQSPSSLSASVGDSVTITCRASQTIASYVNWYQHKPGQAPNLLIYAASILHSGVPSRFRGGGSGTDFTLTINSLQPEDFATYYCQQSYSTPYTFGQGTKVDIK
# notes: full-length IgG (yeast-expressed); also called Antibody Number 37; Ab# 37
# B16: ADI-14533 (antibody, V domains shown)
# VH: QVQLVQSGAEVKKPGSSVIISCKASGGTFRNYGFTWVRQAPGQGLEWLGGIIPMFETVRYAQKFQGRVTITADENTNTAFLAVSSLRSEDTGVYFCARDLQTGIMSSVRSEYRGFMDPWGQGTLVTVSS
# VL: QSVLTQPPSVSGAPRQRVTISCSGSSSNIGTNAVNWYQQLPGKSPKVLIYYDELVPSGVSDRFSGSRSGTSASLAISGLRSEDEAYYYCAAWDDSLNGWVFGGGTQLTVL
# B17: ADI-14540 (antibody, V domains shown)
# VH: QVQLVESGGGVVQPGRSLRLSCAASGFTFTDYAMHWVRQAPGKGLQWVALISYNGRIQYYADSVKGRFTISRDDSKNTLYLQMNSLRAGDTAVYYCARDGDLVAVPAAIGFDSWGQGTLVTVSS
# VL: DIQVTQSPDSLAVSLGERATINCKSSQSVLYTSNNKNYLAWYQQKSRQPPKLLIYWASTRESGVPERFSGSGSGTDFTLTISSLQAEDVAVYYCQQYSSPPYTFGQGTKVEIK
# Biological target: T1, RSV F ectodomain stabilized in the postfusion conformation (F ΔFP), subtype B (Respiratory syncytial virus subtype B, UniProt P13843 26-109; P13843 147-524)
# T1 construct: extracellular domain; trimer; also called Postfusion subtype B; postF subtype B
# Experiment: BLI, IgG on AHQ sensor, 100 nM antigen
row,Binder,Kd
1,B1,0.461 nM
2,B2,0.394 nM
3,B3,0.241 nM
4,B4,2.9 nM
5,B5,1.22 nM
6,B6,0.314 nM
7,B7,2.39 nM
8,B8,0.642 nM
9,B9,0.126 nM
10,B10,2.56 nM
11,B11,0.169 nM
12,B12,0.483 nM
13,B13,9.12 nM
14,B14,0.183 nM
15,B15,0.242 nM

# Biological target: T2, RSV F ectodomain stabilized in the postfusion conformation (F ΔFP), subtype A (Respiratory syncytial virus subtype A, UniProt P03420 26-109; P03420 147-524)
# T2 construct: extracellular domain; trimer; furin-cleaved; also called Postfusion subtype A
# Experiment: BLI, IgG on AHQ sensor, 100 nM antigen
row,Binder,Kd
1,B1,0.38 nM
2,B2,0.389 nM
3,B3,0.297 nM
4,B4,0.301 nM
5,B5,0.361 nM
6,B6,0.358 nM
7,B7,1.45 nM
8,B8,1.52 nM
9,B9,0.196 nM
10,B10,2.86 nM
11,B11,0.247 nM
12,B12,0.297 nM
13,B13,0.827 nM
14,B14,0.264 nM
15,B15,0.299 nM

# Biological target: RSV F protein of recombinant mKate-RSV, subtype B (18537) (Respiratory syncytial virus subtype B …, UniProt P13843 26-574)
# Experiment: cell-based or functional assay
row,Binder,Neut IC50 subtype B
1,B1,0.251 µg/mL
2,B2,0.169 µg/mL
3,B3,2.41 µg/mL
4,B4,0.013 µg/mL
5,B5,> 10 µg/mL
6,B6,0.473 µg/mL
7,B7,4.18 µg/mL
8,B8,2.81 µg/mL
9,B9,0.104 µg/mL
10,B10,0.239 µg/mL
11,B11,0.263 µg/mL
12,B12,2.54 µg/mL
13,B13,2.19 µg/mL
14,B14,0.753 µg/mL
15,B15,0.522 µg/mL

# Biological target: RSV F protein of subtype A (strain A2) on recombinant mKate-RSV (Respiratory syncytial virus subtype A …, UniProt P03420 26-574)
# Experiment: cell-based or functional assay
row,Binder,Neut IC50 (µg/ml) subtype A
1,B16,> 10 µg/mL
2,B17,> 10 µg/mL

# Biological target: RSV F protein of subtype B (18537) on recombinant mKate-RSV (Respiratory syncytial virus subtype B …, UniProt P13843 26-574)
# Experiment: cell-based or functional assay
row,Binder,Neut IC50 (µg/ml) subtype B
1,B16,0.442 µg/mL
2,B17,> 10 µg/mL

# Biological target: RSV F protein of recombinant mKate-RSV, subtype A (strain A2) (Respiratory syncytial virus subtype A …, UniProt P03420 26-574)
# Experiment: cell-based or functional assay
row,Binder,Neut IC50 subtype A
1,B1,0.2 µg/mL
2,B2,0.448 µg/mL
3,B3,0.241 µg/mL
4,B4,0.05 µg/mL
5,B5,> 10 µg/mL
6,B6,0.226 µg/mL
7,B7,> 10 µg/mL
8,B8,> 10 µg/mL
9,B9,0.161 µg/mL
10,B10,0.102 µg/mL
11,B11,0.144 µg/mL
12,B12,0.23 µg/mL
13,B13,0.929 µg/mL
14,B14,0.396 µg/mL
15,B15,0.391 µg/mL
